Measured values taken from article PMC5676040, “The NOX Family of Proteins Is Also Present in Bacteria” (mBio, 2017).

Key:
SpNOX = target: T1, SpNOX (Streptococcus pneumoniae, UniProt Q8CZ28); assay: cytochrome c reduction, absorbance at […] nm; assay type: biochemical; conditions: read-out: 50% inhibitory concentration
T1 construct: gene spr0531; full-length membrane protein, codon-optimized synthetic gene, N-terminal His tag (pQLink N), E. coli BL21(DE3) pLysS, purified in MNG detergent; bis-His heme ligands H69, H83, H129, H142
T1 sequence (Q8CZ28 1-400): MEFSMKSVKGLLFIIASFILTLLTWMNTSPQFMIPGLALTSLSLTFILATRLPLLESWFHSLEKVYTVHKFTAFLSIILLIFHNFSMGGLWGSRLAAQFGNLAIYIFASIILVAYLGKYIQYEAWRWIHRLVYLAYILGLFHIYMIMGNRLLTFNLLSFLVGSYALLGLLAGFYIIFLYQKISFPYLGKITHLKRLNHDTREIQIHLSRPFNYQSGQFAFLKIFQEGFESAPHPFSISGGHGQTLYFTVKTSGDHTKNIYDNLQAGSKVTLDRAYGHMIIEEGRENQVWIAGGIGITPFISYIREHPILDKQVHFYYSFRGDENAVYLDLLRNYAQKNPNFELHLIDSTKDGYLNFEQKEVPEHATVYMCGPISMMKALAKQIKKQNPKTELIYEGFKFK

[1] = test system: Cc1cc2nc3c(=O)[nH]c(=O)nc-3n(C[C@H](O)[C@H](O)[C@H](O)COP(=O)(O)OP(=O)(O)OC[C@H]3O[C@@H](n4cnc5c(N)ncnc54)[C@H](O)[C@@H]3O)c2cc1C; assay: purified protein; assay type: biochemical, Streptococcus pneumoniae; conditions: 200 µM NADPH; cytochrome c 100 µM; Figure 3E; varied: cofactor
[2] = test system: NC(=O)C1=CN([C@@H]2O[C@H](COP(=O)(O)OP(=O)(O)OC[C@H]3O[C@@H](n4cnc5c(N)ncnc54)[C@H](OP(=O)(O)O)[C@@H]3O)[C@@H](O)[C@H]2O)C=CC1; assay: purified protein; assay type: biochemical, Streptococcus pneumoniae; conditions: 10 µM FAD; cytochrome c 100 µM; Figure 3D

Molecule | IC50 (SpNOX) | Km [1] | Km [2]
c1ccc2c(c1)[I+]c1ccccc1-2 [DPI] | ~5 µM |  | 
SpNOX (Streptococcus pneumoniae R6) |  | 0.13 µM | 8 µM
